Source: patent US20250122266A1, “SMART SINGLE-DOMAIN INTRABODIES WITH PRECISION SWITCHES FOR BIOMEDICAL APPLICATIONS” (THE TEXAS A&M UNIVERSITY SYSTEM, priority 2020, published 2025)

How the values were obtained:
[1] = aqueous solutions, purified protein; read-out: dissociation constant (Kd); cited from earlier work
[2] = HeLa cells
Description: The PM-translocation of acVHH-PB variants was used as a readout for high-content imaging. HeLa cells were seeded in a glass-bottom 96-well microplate (Cellvis, Mountain View, CA, USA) at a density of 1×10^4 cells/well and cultured in 40 μL DMEM supplemented with 10% FBS in 5% CO2 at 37° C. 12 hours later, the constructed plasmids were transfected into HeLa cells with Lipofectamine 3000. After 18 hours, the microplate was mounted on the IN Cell Analyzer 6000 (GE) high-content imaging instrument in the absence of caffeine and performed fast imaging with four captured views per well. Next, the microplate was incubated with caffeine (1 μM) for 10 min and re-imaged using the same parameters. The exported florescent images were then analyzed with an Image J PathFinder plugin for automated membrane detection and quantification. The screened top candidate mutations were further characterized by titration with increasing doses of caffeine to obtain the EC50 cures in living cells. The PM/Cytosol ratios were quantified and plotted against the dosest to obtain the apparent binding affinity. […]
Caffeine was titrated into HeLa cells expressing YFP-acVHH-PB variants (as shown in FIG. 2C) and used the PM-to-cytosol ratio of fluorescent signal as a sensitive readout.

SH2-mEmerald = test: moonbody regulated protein degradation; format: cell-based; conditions: moonbody fused with AFB2, escalating doses of pulsed light
Description: The plasmid encoding the moonbody fused with the F-box protein atAFB2 was co-transfected with SH2-mEmerald into HeLa cells. Cells were treated with or without a customized blue light source (470 nm, 40 μW/mm2) after 16 h transfection. Light stimulation was applied for 10% (1 min ON, 9 min OFF), 30% (3 min ON, 7 min OFF), or 50% (5 min ON, 5 min OFF). After an additional 16 hours, cells were imaged and SH2-mEmerald mean intensity were measured. Moonbody without atAFB2 was used as control.
It was then evaluated if moonbody could be utilized to conditionally fine-tune the expression levels of its binding target. The SH2-specific moonbody was fused with the auxin signalling F-box 2 protein (AFB2), a component in the Skp1-Cu1-F-Box (SCF) E3 ubiquitin ligase complex that can recruit auxin-inducible degrons for proteasomal degradation. Monobody can directly recognize its target, thus obviating the need for auxin and the fusion of the degron tag to a target protein.

[3] = test system: SH2 domain of Abl (NE-SH2); test: nuclear envelope (NE) translocation assay of moonbody variants; format: cell-based
Description: (§1) To monitor light-induced F-body: antigen association or dissociation, HeLa cells seeded on glass-bottom dishes were co-transfected with the indicated plasmids shown in the figures. Confocal images were acquired 24-48 hours after transfection. The cells were imaged every 4 sec for 2 nmin unless otherwise noted. The 488-nm laser source to excite GFP was also used for photostimulation (with 1-5% output). To quantify fluorescent signals at selected areas, we used the region-of-interest (ROI) toolbox in Nikon NIS-Elements software to define the nuclear envelope (NE) or nucleoplasm (NP) regions. The “Time Measurement” tool was used to determine the mCherry intensities for moonbody variants and GFP intensities for sunbody variants. The fluorescence intensity ratio (FNE/FNP) was used as readout, with the changes in the ratio plotted as F/F0 or ΔF/F0. For spatially-restricted photostimulation, the FRAP module in the Nikon imaging system was used, with the 488-nm laser power output set at 0.2%-5%.
The instant example provides a light-controllable monobody by inserting the LOV2 photoswitch into a fibronectin type III domain (FN3) scaffold that specifically recognizes the Src Homology 2 (SH2) domain of Abelson tyrosine kinase (Abl). […]

[4] = test system: mCherry (NE-tethered mCh-lamin A); test: NP-to-NE translocation assay of sunbody variants; format: cell-based; conditions: HeLa cells, GFP-tagged LaM8-LOV2 constructs, after photostimulation
Description: as §1
The instant example screens photo-switchable nanobodies using a similar engineering approach and the NE translocation assay (see FIGS. 20A-20B). For this example, an mCherry-specific nanobody (LaM8) was used and LOV2 was inserted into flexible loop regions opposing the CDRs (see FIG. 20B and FIG. 21A), the latter of which are involved in direct antigen recognition and thus remain unperturbed.

B1: WT: wild-type anti-caffeine single variable domain on a heavy chain (acVHH), tested as PB-tagged YFP fusion (protein)
VHH: QLVESGGGLVQAGGSLRLSCAVSGRPFSEYNLGWFRQAPGKEREFVARIRSSGTTVYTDSVKGRFSASRDNATCVVHYTGMLEDGKKFDSSRDRNKPFKFMLGKQEVIRGWEEGVAQMSVGQRAKLTISPDYAYGATGHGSGSGSGVKDLLQAWDLYYHVFRRISGPPGPGSGLWHEMWHEGLEEASRLYFGERNVKGMFEVLEPLHAMMERGPQTLKETSFNQAYGRDLMEAQEWCRKYMKSGSSGGSGSGIIPPHATLVFDVELLKLEKNMGYLQLNSLEPEDTAVYYCAMSRVDTDSPAFYDYWGQGTQVTVSTPRS
Kd [1]: 500 nM

B2: biCOSMO-L: two COSMO copies connected by longer mixed flexible and rigid linker, SEQ ID NO: 7 (protein)
chain: EVQLQASGGGLVQAGGSLRLSCTASGRTGTIYSMAWFRQAPGKEREFLATVGWSSGITYYMDSVKGRFTISRDNAKNSAYLQMNSLKPEDTAVYYCTATRAWSVGYDYWGQGTQVTVSHAAAGAPVPYPDPLEPREQKLISEEDLGGSGGAPEVQLQASGGGLVQAGGSLRLSCTASGRTGTIYSMAWFRQAPGKEREFLATVGWSSGITYYMDSVKGRFTISRDNAKNSAYLQMNSLKPEDTAVYYCTATRAWSVGYDYWGQGTQVTVS
caffeine-inducible PM translocation ([2]; 200 or 1000 nM caffeine): caffeine-induced PM translocation was no longer observed
EC50 (caffeine sensitivity), result in words ([2]; PB-tagged variants, caffeine titration): Intramolecular binding

B3: moonbody: anti-SH2 Abl monobody with LOV2 inserted at site S5 (optimized), SEQ ID NO: 1 (protein)
chain: VSSVPTKLEVVDATPTSLKISWDAYYSSWQNVKYYRITYGETGGDSPVQEFTVPGYYSTATISGLKPGSGLATTLERIEKNFVITDPRLPDNPIIFASDSFLQLTEYSREEILGRNCRFLQGPETDRATVRKIRDAIDNQTEVTVQLINYTKSGKKFWNLFHLQPMRDQKGDVQYFIGVQLDGTEHVRDAAEREGVMLIKKTAENIDEAAKELGVDYTITVYAYDTFFPGYEPNSPISINYRT
target protein level under pulsed light (SH2-mEmerald): gradual recovery of SH2-mEmerald signals
light-dependent moonbody-target interaction ([3]; HeLa cells, NE/NP ratio of mCh signals): almost complete dissociation from NE
repeated NE-to-NP translocation, number of dark-light cycles ([3]; reversibility): at least 10 dark-light cycles

B4: sunbody: anti-mCherry nanobody LaM8 with LOV2 at N-terminus (S0) and S3 loop, SEQ ID NO: 2 (protein)
chain: LATTLERIEKNFVITDPRLPDNPIIFASDSFLQLTEYSREEILGRNCRFLQGPETDRATVRKIRDAIDNQTEVTVQLINYTKSGKKFWNLFHLQPMRDQKGDVQYFIGVQLDGTEHVRDAAEREGVMLIKKTAENIDEAAKELKLMAQVQLVESGGGLVQAGGSLRLSCAVSGRPFSEYNLGWFRQAPGKEREFVARIRSSGTTVYTDSVKGRFSASRDNALERIEKNFVITDPRLPDNPIIFASDSFLQLTEYSREEILGRNCRFLQGPETDRATVRKIRDAIDNQTEVTVQLINYTKSGKKFWNLFHLQPMRDQKGDVQYFIGVQLDGTEHVRDAAEREGVMLIKKTAENIDEAAKNMGYLQLNSLEPEDTAVYYCAMSRVDTDSPAFYDYWGQGTQVTVSTPRS
light-induced change in the NE/NP ratio [4]: over 80%
